Tests used:
[1] = target: T1, TLX ligand-binding domain (UniProt Q9Y466 155-385); assay: BLI
[2] = target: T1, TLX ligand-binding domain; assay: AlphaScreen or HTRF

T1 sequence (Q9Y466 155-385): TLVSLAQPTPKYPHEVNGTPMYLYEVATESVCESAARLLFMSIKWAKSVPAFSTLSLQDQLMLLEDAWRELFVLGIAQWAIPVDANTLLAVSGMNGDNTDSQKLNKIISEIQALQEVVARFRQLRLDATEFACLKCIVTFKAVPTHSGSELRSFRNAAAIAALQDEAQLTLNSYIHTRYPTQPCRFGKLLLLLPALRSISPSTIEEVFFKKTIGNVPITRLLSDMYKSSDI

atrophin corepressor peptide
Kd [1]: 14.2 µM

untagged atrophin peptide
EC50 [2]: 1.3 µM

B1: receptor-interaction domain from NCOA3 (domain or fragment, UniProt Q9Y6Q9 621-821, looked up)
chain: LLQLLTCSSDDRGHSSLTNSPLDSSCKESSVSVTSPSGVSSSTSGGVSSTSNMHGSLLQEKHRILHKLLQNGNSPAEVAKITAEATGKDTSSITSCGDGNVVKQEQLSPKKKENNALLRYLLDRDDPSDALSKELQPQVEGVDNKMSQCTSSTIPSSSQEKDPKIKTETSEEGSGDLDNLDAILGDLTSSDFYNNSISSNG
EC50 [2]: 3.3 µM

Source: publication doi:10.1101/2020.10.28.359810 (bioRxiv, 2020)
